Here are results for one molecule from US20230242658A1 (published 2023).

In test [1] the target is T1, human 4-1BB on CHO-K1 cells (human, UniProt Q07011 24-255).
T1 construct: whole, on cells; also called CHO-K1/hu 4-1BB; CHO-K1/hu4-1BB
Nature of the test: FACS, CHO-K1/hu4-1BB cells; PR000701 is the weaker comparator. A general note: Flow cytometry measures light scatter and fluorescence of single cells or particles in a stream.

For test [2], the target named is T2, human PD-L1 on CHO-K1 cells (human, UniProt Q9NZQ7 19-290).
T2 construct: whole, on cells; also called CHO-K1/hPDL1; CHO-K1/hPD-L1
T2 sequence (Q9NZQ7 19-290): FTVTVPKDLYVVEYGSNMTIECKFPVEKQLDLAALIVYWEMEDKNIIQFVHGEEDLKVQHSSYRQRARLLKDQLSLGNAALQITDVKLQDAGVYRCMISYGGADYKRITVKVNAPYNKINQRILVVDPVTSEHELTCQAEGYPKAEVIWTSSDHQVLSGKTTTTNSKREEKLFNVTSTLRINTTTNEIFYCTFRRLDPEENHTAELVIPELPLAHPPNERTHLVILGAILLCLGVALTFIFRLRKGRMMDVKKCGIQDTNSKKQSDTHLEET
Nature of the test: FACS, CHO-K1/hPD-L1 cells; PR000701 is the weaker comparator.

T1 sequence (Q07011 24-255): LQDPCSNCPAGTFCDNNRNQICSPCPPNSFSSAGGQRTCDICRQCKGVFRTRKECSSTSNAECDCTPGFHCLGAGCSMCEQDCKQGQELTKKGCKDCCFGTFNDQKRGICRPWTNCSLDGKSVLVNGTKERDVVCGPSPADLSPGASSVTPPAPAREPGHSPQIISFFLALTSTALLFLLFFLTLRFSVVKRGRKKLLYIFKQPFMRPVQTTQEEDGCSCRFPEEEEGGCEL

B1: PR000701 (bispecific antibody, human IgG4 S228P, kappa)
chain 1: not shown
chain 2: EVQLVESGGGLVQPGGSLRLSCAASGFTFSSYWMSWVRQAPGKGLEWVANIKQEGSEKYYVDSVKGRFTISRDNAKNSLYLQMNSLRAEDTAVYYCARDRAVAGAFDIWGQGTMVTVSSASTKGPSVFPLAPSSKSTSGGTAALGCLVKDYFPEPVTVSWNSGALTSGVHTFPAVLQSSGLYSLSSVVTVPSSSLGTQTYICNVNHKPSNTKVDKKVEPKSC
chain 3: not shown
notes: PD-L1x4-1BB FIT-Ig: Fab A PR000265, Fab B PR000197, human IgG4
On to B1, for which the binding result in test [1] and in test [2] was “binds” in each case.
